Experimental data published in FireProtDB (doi:10.1016/s0167-4838(98)00243-x).
“And” between values parts separate entries of the source, which are not always exact repeats. Identical values can stand only once.

B1: Chitosanase, P33665 (parent)
chain: MHSQHRTARIALAVVLTAIPASLATAGVGYASTQASTAVKAGAGLDDPHKKEIAMELVSSAENSSLDWKAQYKYIEDIGDGRGYTGGIIGFCSGTGDMLELVQHYTDLEPGNILAKYLPALKKVNGSASHSGLGTPFTKDWATAAKDTVFQQAQNDERDRVYFDPAVSQAKADGLRALGQFAYYDAIVMHGPGNDPTSFGGIRKTAMKKARTPAQGGDETTYLNAFLDARKAAMLTEAAHDDTSRVDTEQRVFLKAGNLDLNPPLKWKTYGDPYVINS

Variants of: B1
Details: Streptomyces sp. (strain N174); pH 7; 42.7 °C; Thermal; CD; sodium phosphate 50 mM; transition: 3; reversible: yes(77%); structure 1CHK; whole UniProt chain shown

Variant	ddG of mutation (higher = less stable) [kcal/mol]
MHSQHRTARIALAVVLTAIPASLATAGVGYASTQASTAVKAGAGLDDPHKKEIAMELVSSAENSSLDFKAQYKYIEDIGDGRGYTGGIIGFCSGTGDMLELVQHYTDLEPGNILAKYLPALKKVNGSASHSGLGTPFTKDWATAAKDTVFQQAQNDERDRVYFDPAVSQAKADGLRALGQFAYYDAIVMHGPGNDPTSFGGIRKTAMKKARTPAQGGDETTYLNAFLDARKAAMLTEAAHDDTSRVDTEQRVFLKAGNLDLNPPLKWKTYGDPYVINS [W68F]	3.56

Same assay, conditions: Streptomyces sp. (strain N174); pH 7; 43.2 °C; Thermal; Fluorescence; sodium phosphate 50 mM; reversible: yes(75%); structure 1CHK; whole UniProt chain shown

Variant	ddG of mutation (higher = less stable) [kcal/mol]
MHSQHRTARIALAVVLTAIPASLATAGVGYASTQASTAVKAGAGLDDPHKKEIAMELVSSAENSSLDFKAQYKYIEDIGDGRGYTGGIIGFCSGTGDMLELVQHYTDLEPGNILAKYLPALKKVNGSASHSGLGTPFTKDWATAAKDTVFQQAQNDERDRVYFDPAVSQAKADGLRALGQFAYYDAIVMHGPGNDPTSFGGIRKTAMKKARTPAQGGDETTYLNAFLDARKAAMLTEAAHDDTSRVDTEQRVFLKAGNLDLNPPLKWKTYGDPYVINS [W68F]	4.43

Same assay, conditions: Streptomyces sp. (strain N174); pH 7; 52.2 °C; Thermal; CD; sodium phosphate 50 mM; transition: 3; reversible: yes(77%); structure 1CHK; whole UniProt chain shown

Variant	ddG of mutation (higher = less stable) [kcal/mol]
MHSQHRTARIALAVVLTAIPASLATAGVGYASTQASTAVKAGAGLDDPHKKEIAMELVSSAENSSLDFKAQYKYIEDIGDGRGYTGGIIGFCSGTGDMLELVQHYTDLEPGNILAKYLPALKKVNGSASHSGLGTPFTKDWATAAKDTVFQQAQNDERDRVYFDPAVSQAKADGLRALGQFAYYDAIVMHGPGNDPTSFGGIRKTAMKKARTPAQGGDETTYLNAFLDARKAAMLTEAAHDDTSRVDTEQRVFLKAGNLDLNPPLKWKTYGDPYVINS [W68F]	1.76

Same assay, conditions: Streptomyces sp. (strain N174); pH 7; Thermal; CD; sodium phosphate 50 mM; transition: 3; reversible: yes(77%); structure 1CHK; whole UniProt chain shown

Variant	Tm [°C]	change of melting temperature, mutant - wild type (higher = more stable) [°C]	unfolding enthalpy (van 't Hoff) [kcal/mol]
MHSQHRTARIALAVVLTAIPASLATAGVGYASTQASTAVKAGAGLDDPHKKEIAMELVSSAENSSLDFKAQYKYIEDIGDGRGYTGGIIGFCSGTGDMLELVQHYTDLEPGNILAKYLPALKKVNGSASHSGLGTPFTKDWATAAKDTVFQQAQNDERDRVYFDPAVSQAKADGLRALGQFAYYDAIVMHGPGNDPTSFGGIRKTAMKKARTPAQGGDETTYLNAFLDARKAAMLTEAAHDDTSRVDTEQRVFLKAGNLDLNPPLKWKTYGDPYVINS [W68F]	45.2	-7	80

Same assay, conditions: Streptomyces sp. (strain N174); pH 7; Thermal; Fluorescence; sodium phosphate 50 mM; reversible: yes(75%); structure 1CHK; whole UniProt chain shown

Variant	Tm [°C]	change of melting temperature, mutant - wild type (higher = more stable) [°C]	unfolding enthalpy (van 't Hoff) [kcal/mol]
MHSQHRTARIALAVVLTAIPASLATAGVGYASTQASTAVKAGAGLDDPHKKEIAMELVSSAENSSLDFKAQYKYIEDIGDGRGYTGGIIGFCSGTGDMLELVQHYTDLEPGNILAKYLPALKKVNGSASHSGLGTPFTKDWATAAKDTVFQQAQNDERDRVYFDPAVSQAKADGLRALGQFAYYDAIVMHGPGNDPTSFGGIRKTAMKKARTPAQGGDETTYLNAFLDARKAAMLTEAAHDDTSRVDTEQRVFLKAGNLDLNPPLKWKTYGDPYVINS [W68F]	36.2	-7	196

Same assay, conditions: Streptomyces sp. (strain N174); pH 7; 42.7 °C; Thermal; CD; sodium phosphate 50 mM; transition: 3; reversible: yes(79%); structure 1CHK; whole UniProt chain shown

Variant	ddG of mutation (higher = less stable) [kcal/mol]
MHSQHRTARIALAVVLTAIPASLATAGVGYASTQASTAVKAGAGLDDPHKKEIAMELVSSAENSSLDWKAQYKYIEDIGDGRGYTGGIIGFCSGTGDMLELVQHYTDLEPGNILAKYLPALKKVNGSASHSGLGTPFTKDFATAAKDTVFQQAQNDERDRVYFDPAVSQAKADGLRALGQFAYYDAIVMHGPGNDPTSFGGIRKTAMKKARTPAQGGDETTYLNAFLDARKAAMLTEAAHDDTSRVDTEQRVFLKAGNLDLNPPLKWKTYGDPYVINS [W141F]	3.91

Same assay, conditions: Streptomyces sp. (strain N174); pH 7; 43.2 °C; Thermal; Fluorescence; sodium phosphate 50 mM; reversible: yes(77%); structure 1CHK; whole UniProt chain shown

Variant	ddG of mutation (higher = less stable) [kcal/mol]
MHSQHRTARIALAVVLTAIPASLATAGVGYASTQASTAVKAGAGLDDPHKKEIAMELVSSAENSSLDWKAQYKYIEDIGDGRGYTGGIIGFCSGTGDMLELVQHYTDLEPGNILAKYLPALKKVNGSASHSGLGTPFTKDFATAAKDTVFQQAQNDERDRVYFDPAVSQAKADGLRALGQFAYYDAIVMHGPGNDPTSFGGIRKTAMKKARTPAQGGDETTYLNAFLDARKAAMLTEAAHDDTSRVDTEQRVFLKAGNLDLNPPLKWKTYGDPYVINS [W141F]	4.27

Same assay, conditions: Streptomyces sp. (strain N174); pH 7; 52.2 °C; Thermal; CD; sodium phosphate 50 mM; transition: 3; reversible: yes(79%); structure 1CHK; whole UniProt chain shown

Variant	ddG of mutation (higher = less stable) [kcal/mol]
MHSQHRTARIALAVVLTAIPASLATAGVGYASTQASTAVKAGAGLDDPHKKEIAMELVSSAENSSLDWKAQYKYIEDIGDGRGYTGGIIGFCSGTGDMLELVQHYTDLEPGNILAKYLPALKKVNGSASHSGLGTPFTKDFATAAKDTVFQQAQNDERDRVYFDPAVSQAKADGLRALGQFAYYDAIVMHGPGNDPTSFGGIRKTAMKKARTPAQGGDETTYLNAFLDARKAAMLTEAAHDDTSRVDTEQRVFLKAGNLDLNPPLKWKTYGDPYVINS [W141F]	1.89

Same assay, conditions: Streptomyces sp. (strain N174); pH 7; Thermal; CD; sodium phosphate 50 mM; transition: 3; reversible: yes(79%); structure 1CHK; whole UniProt chain shown

Variant	change of melting temperature, mutant - wild type (higher = more stable)	unfolding enthalpy (van 't Hoff)
MHSQHRTARIALAVVLTAIPASLATAGVGYASTQASTAVKAGAGLDDPHKKEIAMELVSSAENSSLDWKAQYKYIEDIGDGRGYTGGIIGFCSGTGDMLELVQHYTDLEPGNILAKYLPALKKVNGSASHSGLGTPFTKDFATAAKDTVFQQAQNDERDRVYFDPAVSQAKADGLRALGQFAYYDAIVMHGPGNDPTSFGGIRKTAMKKARTPAQGGDETTYLNAFLDARKAAMLTEAAHDDTSRVDTEQRVFLKAGNLDLNPPLKWKTYGDPYVINS [W141F]	-7.1 °C and -7.5 °C	170 kcal/mol and 80 kcal/mol
